Data: patent publication US20200362323

Assays:
Assay in all cases: cell_activity
[1] = system: mouse TRB2-TALEN left (artificial (Xanthomonas TALE-FokI)?); settings: SSA reporter assay in HEK293T, pair with right TALEN
[2] = system: mouse TRB1-TALEN left (artificial (Xanthomonas TALE-FokI)?); settings: SSA reporter assay in HEK293T, pair with right TALEN
[3] = system: mouse TRA2-TALEN right (artificial (Xanthomonas TALE-FokI)?); settings: SSA reporter assay in HEK293T, pair with left TALEN; site given as top strand
[4] = system: mouse TRB1-TALEN right (artificial (Xanthomonas TALE-FokI)?); settings: SSA reporter assay in HEK293T, pair with left TALEN; site given as top strand
[5] = system: mouse TRA2-TALEN left (artificial (Xanthomonas TALE-FokI)?); settings: SSA reporter assay in HEK293T, pair with right TALEN
[6] = system: mouse TRB2-TALEN right (artificial (Xanthomonas TALE-FokI)?); settings: SSA reporter assay in HEK293T, pair with left TALEN; site given as top strand

Sequence “TGTGCTTGGCCAGGGGCTTC (double strand) [mouse TRB2 left target]” has an activity (fold vs ZFA36) [1] of 3.41.
“TGACTCCACCCAAGGTCTCC (double strand) [mouse TRB1 left target]” showed an activity (fold vs ZFA36) [2] of 3.79.
Sequence “AATGTGCCGAAAACCATGGA (double strand) [mouse TRA2 right target]” has an activity (fold vs ZFA36) [3] of 3.09.
“AAAAGCAGAGATTGCAAACA (double strand) [mouse TRB1 right target]” gave an activity (fold vs ZFA36) [4] of 3.79.
Sequence “TCTGCCTGTTCACCGACT (double strand) [mouse TRA2 left target]” has an activity (fold vs ZFA36) [5] of 3.09.
Sequence “GGAGCTGAGCTGGTGGGTGA (double strand) [mouse TRB2 right target]” has an activity (fold vs ZFA36) [6] of 3.41.
